assay: soluble on expression in E. coli; label from the status in PepcDB or PDB records

Row | Sequence | soluble on expression in E. coli
1 | MTVGMSGFTRAGEAKAVPLALAERAKTNPMKITLMTGASLGNDLDKTMVEAGMLARRMPFQSDPALRKAINDGRVMFIDQHLSETVEQLRGGQIHGVDIAIVEAVAITAEGGIVPTTSVGNSASFAILADKVIVEINLSQPEVLEGLHDIFIPAKRPTRMPIPVVATDSRVGLPFIPVPPEKIAAIVLSDKSDSFSTVLPPDDETKAIAGHLTEFLLNEVRHGRMTHELQPLQAGIGTIANAVMHGFIDTPFHDLKMYSEVLQDSTFELFDAGKLTFASGSSITLSSAMNEQVMPRLSEYKSRLILRPQEVSNHPEVIRRLGIIGINTALEFDIYGNVNSTHVGGTHMMNGIGGSGDFARNAYMSIFVTKSIAKGGAISSVVPMVSHVDHTEHDVDILVTETGLADLRGLAPRERAAVIIANCVHPSYRDALTDYYQRAAARGGHTPHLIEEALSWHNALRERGTMLPQRLEHHHHHH | not soluble
2 | MKRLLFLGVDVGGTKTLAVLSDEQGNVLAIYKGKGANYQVVGKENAVRNLKDVIEAILDRAGKTRKEIDFAFFGYAGADFDYEMKIVREILEKLGLEKFDFDNDGRIALRSGVFDDIGIMVSCGTGSISYASDGRRVNRIGGLSFSLGERLGSHYIASLVTSAVMRAKDGRDDWTTLVDEVEKEIGPVENLLRYDYEGGYTAELVKKVNQALFRCAEKGDAVSLRIFDEIVVEVKKIIDAHRKALNFTPPIKLILEGSFFKNAPSLLINMIESAIGREYEIVIPEHDPVIGAVLFAMERVGLRVTEDLYNRLVRNYLREVKK | soluble
3 | MGSDKIHHHHHHMGIEAAVGAWNNTPRGDFAYKGTNLDIKDELKYDDETRLMGRVKIETPLFFPNLYLMATPMEFDGQGSKSGTFQFGDVTFDGTVPFTSELKLDHYDLGLYWGIPLLKTATAGVVNVDLGIDARLIDLKAEVVQGGVTESKSLVVGVPMIYAGVQVRPLSWFAAEGEARGMAYGDNRYYDLIARGKLILFDHLFAAAGYRYEKIEIDESDIKADVDFGGPFAEVGFQF | not soluble
4 | DATWLPPSRWDDGIPGLMLDYNLNGTVSRNYQGGDSHQFSYNGTVGGNLGPWRLRADYQGSQEQSRYNGEKTTNRNFTWSRFYLFRAIPRWRANLTLGENNINSDIFRSWSYTGASLESDDRMLPPRLRGYAPQITGIAETNARVVVSQQGRVLYDSMVPAGPFSIQDLDSSVRGRLDVEVIEQNGRKKTFQVDTASVPYLTRPGQVRYKLVSGRSRGYGHETEGPVFATGEASWGLSNQWSLYGGAVLAGDYNALAAGAGWDLGVPGTLSADITQSVARIEGERTFQGKSWRLSYSKRFDNADADITFAGYRFSERNYMTMEQYLNARYRNDYSSREKEMYTVTLNKNVADWNTSFNLQYSRQTYWDIRKTDYYTVSVNRYFNVFGLQGVAVGLSASRSKYLGRDNDSAYLRISVPLGTGTASYSGSMSNDRYVNMAGYTDTFNDGLDSYSLNAGLNSGGGLTSQRQINAYYSHRSPLANLSANIASLQKGYTSFGVSASGGATITGKGALVPR | soluble
5 | MGSDKIHHHHHHQDGPLRIEITDGVIEPLPFAVPDFIADTPAAAQYATDIARVIAQDLVGSGLFREIPKVAYISPYTDFDAEVNFTDWKAINAQALIAGAVSLSGDRITVRFRGYDVFAGQELGAGLQLSGTTDGWRRIAHKVADTIYSRLTGEGGYFDSRVVFVSETGPKNDRKKRLAIMDYDGANVQYLTNSDAIVLAPRFSPTGDRVLYTSYESGFPQIHVLDVGRVQRRVLSAGNGSMSFAPRFAPNGQTIVYSQSQGGNTDLFSMDINSGNPQRLTSAPSIETAPSFSPDGSQIVFESDRSGTSQLYVMSASGGEAKRISFGQGRYGTPVWSPRGDYIAFTKQNAGRFHIGVMRTDGSEERLLTASFLDEGPTWSPNGRVIMFTRETQGASGQARLYSVDISGRNLKPVKTPDGASDPSWSPLQN | not soluble
6 | MNSLRPELLELTPQALTALSNAGFVKRSLKELENGNVPEISHENSALIATFSDGVRTQLANGQALKEAQCTYGASGMCRHRVMLVLSYQRLCATAQPTGKEEEWDPAIWLEELATLPDATRKRAQALVAKSITIELFCAPGEIPSARLPMSDVRFYSRSSIRFARCDCIEGTLCEHVVLAVQAFVQAKAQQAELTHLIWQMRSEHVTSSDDPFASEEGKTCRQYVQQLSQALWLSGISQPLIHYEAAFSRAQQAAERCSWRWVSESLRQLRASVDAFHARASHYHAGECLRQLAALNSRLNCAQEMARSDSVGEVPPVPWRTVVGSGIAGEAKLDHLRLVSLGMRCWQDIEHYGLRIWFTDPDTGSILHLSRSWPRSEQEDSPAATRRLFSFQAGALAGGQIVSQAAKRSADGELLLATRNRLSSVVPLSPDAWQMLSAPLRQPGIVALREYLRQRPPACIRPLNQVDNLFILPVAECISLGWDSSRQTLDAQVISGEGEDNLLTLSLPASASAPYAIERMAALLQQTDDPVCLVSGFVSFVDGQLTLEPQVMMTKTRAWALDAETAPVVVSLPSASVLPVPSTAHQLLMRCQALLIQLLHNGWRYQEQSAINQAELLANDLTAVGFYRLAHVLAQFRNTESEARVEAMNNGVLLCEQLFPMLQQQG | not soluble
7 | MFMFEKPHGMRDTLPGLYETKKKVRRSLTDLIDKWGYQFMETPTLEFYDTVGVQSAIEEQQLFKLLDQDGKTLVLRPDMTGPIARVAASKLLKHGHPLRVGYAANVFRAQEREGGRPAEFEQVGVELIGDGTTSADAEVIALVVGALKNAGLASFKIAIGHAGIADALFVEVLGNVERADVLRRFLYEKNYVGYREHVKSLPLSSIDKSRLLELLELRGGIEVCGRAEEIVDSAQGKSVVDELKALWDILEDYGCTENVRLDLNMVSHMSYYTGILFEVYAENVGFVIGSGGRYNKLLGHFDSPAPATGFGLRIDRLIEALHMKDEPCEIDAVIFSKEQRAQAIAYANEERMKGNKVVLQDLSGIENIDQMTKSFANVTYFIGARKEEQNG | not soluble
8 | MAGDPNSMKFMSGKFCVLCGKQNVDLIDSLCVDCYVKSKKLIETPKRVTGKYCKICGAQWIRGKWIRTSATSLASVVEDIIARELGSKMRIDKNVDEFAFDIKSIWKDPSGNSFATIEFRGKVRGKSFSQEAVISLEMERELCDSCFRKKTRYYEAIVQLRSKGKIGVDDKKRAFFESFFSTSIVDNISDVIEGREGVDYYFMSKSVARKLVSMISSIVDVEVNESYQNEKMKNGKREAKLVISLRILEHHHHHH | not soluble
9 | MGHHHHHHSHMKKEHVLHCQFSAWYPFFRGVTIKSVILPLPQNVKDYLLDDGTLVVSGRDDPPTHSQPDSDDEAEEIQWSDDENTATLTAPEFPEFATKVQEPINSLGGSVFPKLNWSAPRDAYWIAMNSSLKCKTLSDIFLLFKSSDFITRDFTQPFIHCTDDSPDPCIEYELVLRKWCELIPGAEFRCFVKENKLIGISQRDYTQYYDHISKQKEEIRRCIQDFFKKHIQYKFLDEDFVFDIYRDSRGKVWLIDFNPFGEVTDSLLFTWEELISENNLNGDFSEVDAQEQDSPAFRCTNSEVTVQPSPYLSYRLPKDFVDLSTGRDAHKLIDFLKLKRNQQEDD | not soluble
10 | SLNSLASHTFISGSTGTGKSNTVYEILDEVRKHGVKFLVVEPVKGEYKHIFGNDENVSVYGTNPELSDLLRINPFAFPKGIHVLEHLDRLIEIFNVCWPMYAAMPAVLKNAVERAYEDSGWDLLKSINSYGDLYPTFADVTRNIKEIIDSSEYDNENKGAYKGSLLTRLESLTNGINGMIFTNQAITDKELFDENVIIDLSRVGSTETKSLIMGMLVLKLQEYRMTHTDSLNNILKHVTVLEEAHNILKRTSNEQSMEDSNLVGKSVEMIANGIAEMRTYGEGFIIADQAPGLMDMAVIRNTNTKIIMRLPDFSDRELVGKSANL | not soluble
11 | MGNCNARPATFKPKNLPMEYPKKYAMYPTRRRMRASERRTYKRDCKNLLESVAGENPFEGDEETANNYTEAIFSISIKAKVLKTYMDLIESSINEECPVNGHIQLFCNEINNLSHLYEVFFRKSIVSVDTRVEERKEIARAAYRDIKNLTIIIYLNKERSKTLLQSVMMHTEFQTHQAEKLVEHYEATFSPILKEVLPDPNAPRIHRTPTRAQIIAFWEEVRREKESGTLGTPF | not soluble
12 | MGSDKIHHHHHHMQNPFTTTFSKTPEYTYIHTEKTEEILENFIYDNPSESVYKITGVRGSGKTVILAKVEEELRTNESRYINWLVFDVNPARDILGQIAAMLVKAGFGSQDKKTTGINLSATVMGTGGGIGYTAENNNNFFDIGVEVETMIQAAQKKGKKILIGIDEVSKSEEMIKFASEYGRWLRAGYPVYFVCTGLYENIQELSNVKNLTFFRRAATVKTEPLNMIRMTEMYKSKLDIDSNEAREMAKITKGYAYAFQELGVLYFKKKLDELLEDILPKLKAELFAYSYEKIWEEMTEMDRFLAGLLTEKEEYKREEVLKLMGEKSGSYSMYRDRLIKRGILNSRQGYISLALPYFGEYIKEYC | not soluble
13 | MSDSPIGSSQQVEPEHRTPDLMDIDPLIANLKALHEETRSDDDDDGQPSTSAKRKDSRADGIVIHQKKYSDPGRFLWIWLLGVRVPALSIDGEPHLPIEILDDMLTKKDKKDQMSFQNLLRYKNVYIRMASPSQFRAVMEKSKECENLNITSLSLMSRSDIERIMGELRLESMLTLAEHDNWDISDRVHVVHVNFIDYCSEWLESDDLEEDVMQSGTHGYWYKNRRNMRCIECQHCEGKFTPTDFIMHHHYPIKPSGFVHTGCNSFQWIRLIEVFDKSNENLEAWNKFVLNSHRAGKREYDEAAPHQAPPKRPAMETPVPVAADNGWEADEEEEGEEIVDRDADIEKCKLRNKKKMENLHIADFLGPSGSKGLKPRNKFEAVIIEQLNKMDDAALEALFLKSPEEYNLWVKESDFTHKVVTQQQEWKAKMKDPNFKSRASANFDVSKGEFDNMRHFDNASKATRQEIQQLAEQFANLDRDAKLLTPMEFVLREHALLKNVSADAIRVLCNRPPLPPLPPPPPPPKPKPAPVQPISLGNINFVALAQQLIASGIKLPLPIVTPPVVSTPAPVITPIPAALPISPNSDFLKQQLSTAMSSPALLSLYPKLTAGAYEQLAQFIKTTTVKN | not soluble
14 | MGSDKIHHHHHHMIISWNTTNKCNMHCEHCYRDSGKGAEGELSTTEGKKLIDEIAKAGFKIMIFSGGEPLLRDDIYELIGYASKIGLRCVIGSNGTLITLEAAQKLKKAGVMRAGISLDSLKAKKHDSFRNYSGAWENTIIGIENLKKAGISFQINTTVMKWNKDEVKDITDFGANLGASAHHVFFLVPTGRGAELQEQILSKNDYENLIKEIMLKQAHANIEIKPTCAPQFVRIAEQNNIKTRFKKGCLAGIKYCIISPTGNVQPCAYLNFSAGNVKQKSFGEIWRESPILKKLRTMEYGEKCGTCKYKNKCGGCRARAAFYNNGDIMASDTWCIYNEYEENKING | not soluble
15 | AASDSAQLKSAREDIKELLKTKFCHPIMVRLGWHDAGTYNKNIEEWPQRGGANGSLRFDVELKHGANAGLVNALNLLKPIKDKYSGVTYADLFQLASATAIEEAGGPKIPMKYGRVDVTEPEQCPEEGRLPDAGPPSPAQHLRDVFYRMGLNDKEIVALSGAHTLGRSRPDRSGWGKPETKYTKDGPGAPGGQSWTAQWLKFDNSYFKDIKERRDEDLLVLPTDAALFEDPSFKVYAEKYAADPEAFFKDYAEAHAKLSNLGAKFGPAEGFSLEGSPAGAAPEKFVAAKYSTGKD | soluble
16 | MTPGFPLPKPDVLSRPFWDFAQRGVLSLQRCRHCGDVHFPAAPVCPACLSEQQEWVPASGRGTLFSWCEFHKGYWDSVASLLPYRVAVIKLNEGPLLISNLVDVADCAALRADAPVEVVFRPVSADINLPVFRLRHAY | not soluble
17 | IKLNTLNTMSMGVTMRYMSEKYFKMMCGVQMEINYSQRGWDEKIEDDSGNSYSRTMNYLEIPFMAHLAFGKDALNRGVKVFFNAGPQIGFFLGDNEKINWTTSTTRPEHGKEVENKFDYGITAGAGLEVSTGIGHFLLEGRYYMGLSDFYKNSKRDFFERSAHSFIGIRLSYLI | not soluble

Source: the DeepSol protein solubility set
